From the supplement of paper PMC12042874 come the findings set out here.

± gives the uncertainty stated by the source.

This data set is described as follows: amyloid nucleation score (Sup35N fusion, yeast selection) (log enrichment); library NNK2; higher = more nucleation; inactive = no reads after selection. The essentials:
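The nucleation score equals the log enrichment of output over input reads from DiMSum, centred on the mode score of non-aggregating sequences. It was computed only for sequences with 100 or more input reads. The reads came from Illumina sequencing of plasmid inserts from psi-negative yeast expressing Sup35N fused to peptides of 20 random codons, induced with 100 μM copper sulfate for 24 hours and grown 7 days at 30°C without adenine and uracil.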
Turning to PICESWHFSLIVLMLFLNWE, the amyloid nucleation score result is “inactive”.
Under PIDFVLCSNNSSSWPVHKQN stands 2.36 ± 0.11; under PIGLGVCLVICLKNEVSRCW, 3.37 ± 0.063; under PIKVDEVCGCRRRWFGDWDS, -0.146 ± 1.
Under PINVRNYKRVCGGMVV stands “inactive”; under PISLRGLYCVKDLMDKPM, 0.113 ± 0.61.
Turning to PISNLHILGFHHLTQHDRTV, the amyloid nucleation score was determined as 1.05 ± 0.3.
Under PITVYWCCDNS stands 3.84 ± 0.087; under PKFLSFADSAFLICCRAIVF, 6 ± 0.08.
Under PKIKHMMAWVMFVAFKVCSC stands -0.063 ± 0.29; under PKKSVGKLNIILEVLPSTAV, -0.666 ± 0.53; under PLCHLLYRSLMFFTLSEVSC, 0.042 ± 0.8.
Under PLDLYSVSIISLFEYIGVVR stands -0.948 ± 1; under PLDTYLWAYLLPWWSLCTSI, “inactive”.
Take PLMRGECGALLRLMFNTVS: the amyloid nucleation score entry is “inactive”.
As for PLNGIRFWSDVNLSRDGSSM, the amyloid nucleation score was -0.025 ± 1.1.
Under PLSLYNFIFYNAEVPYVVVT stands 1.84 ± 0.1.
Under PLYLYA stands 4.28 ± 0.078; under PMFCFCPLCLWHKDCISINS, 8.227 ± 0.078; under PMSYLVWVSDFYLLRGGS, 0.019 ± 1.1.
The substance PMVDRMMDASRWLPLDY gave an amyloid nucleation score of 0.109 ± 0.45.
Under PMVYRYKGRHIN stands -1.27 ± 0.62.
Under PMWRVFAFYRWVALMSLTRI stands “inactive”; under PNDLLHLSRLIQDMWMINFN, “inactive”.
Under PNFRVVFCLRSV stands 9.978 ± 0.024.
With PNPLSMLRLYRNKASVFSIK, the amyloid nucleation score amounted to 0.745 ± 0.41.
Under PPLLSISYKRRRVMFHFHVF stands “inactive”; under PPVVVSTSIWSRLCSYV, 0.151 ± 0.35.
For the substance PPYALDVTFVMRPKLSSR, the amyloid nucleation score came to 1.21 ± 0.23.
In the case of PRHSSSPALILWNYPNLTGI, the amyloid nucleation score is -0.708 ± 0.37.
Under PRLGWHVLLVQIAVG stands 2.94 ± 0.085; under PRMGFNDPARLGG, -1.34 ± 0.76; under PRRMNRGYQNDYFISTVFSV, -0.711 ± 0.64.
Under PRRNWMLVCTIIFVWNEKEY stands 0.034 ± 1.1.
Under PRRYLTIPLSFFLHNSIIGI stands “inactive”; under PSDSECISCSCLDRWYRVFE, 2.94 ± 0.12; under PSLFTVFNVRLFQE, 4.12 ± 0.072.
Take PSVGYSITWGNILLYRIGFR: the amyloid nucleation score was -1.19 ± 1.
Under PSVRTYTV stands 4.67 ± 0.054.
Under PSVVVSNTYIGSPGYKRIWF stands 7.844 ± 0.071; under PSWAELRVAYLLCGSGQPG, 1.43 ± 0.19.
Under PSYRCK stands “inactive”; under PTCMLCA, 0.868 ± 0.44; under PTCSNHCFFYLNHTN, 3.66 ± 0.12.
Turning to PTLTSIELSSTPRIRFWDSA, the amyloid nucleation score came out at 0.122 ± 0.26.
Under PTPYKGRLLFPHHSGLYLIG stands -1.23 ± 1.1; under PTRFSLDHWFPSVHYYPRLY, -1.05 ± 1.1; under PTSDMWSCNNL, 0.961 ± 0.81.
Under PVDVIHSRFVTGHFD stands -0.853 ± 0.78.
Under PVFAFQYLSLCKWDLF stands -0.976 ± 1; under PVKIGMFPVGRWQFKDQFGF, -0.704 ± 0.44.
With PVLVGESHSIGL, the amyloid nucleation score was 0.863 ± 0.24.
Under PVNWGQGITTKALWYMTLRF stands -0.417 ± 1.1.
PVSALAVFRCLMYSCFCGDL: the amyloid nucleation score came out at 6.172 ± 0.035.
Consider PVYMFKYLVTLIWPHSKATF, for which the amyloid nucleation score was 0.102 ± 0.34.
Regarding PWIAGCNMRTNWFNILNCPV, the amyloid nucleation score was -0.583 ± 0.38.
